A word on the Kd: it is the equilibrium constant for the complex coming apart.

2 molecules from US20140030270A1 can be followed below.

For assay [1], the target named is cynomolgus monkey PCSK9, V5-6xHIS tagged (cynomolgus monkey). The assay can be described thus: SPR (Biacore 2000), antibody amine-coupled to the chip, PCSK9 as analyte, pH 7.4.
Assay [2] has the same target. The assay can be described thus: Biacore solution equilibrium assay, free PCSK9 measured on immobilised 21B12. (SPR reads the build-up and loss of mass on a sensor chip optically.)
Assay [3] has the same target. Nature of the assay: KinExA solution equilibrium, PCSK9-coated beads; cyno PCSK9. (In general: A kinetic exclusion assay measures how much of one partner remains free in solution.)

B1: 21B12 IgG4 (21B12, anti-PCSK9 huIgG4) (antibody, V domains shown)
VH: QVQLVQSGAEVKKPGASVKVSCKASGYTLTSYGISWVRQAPGQGLEWMGWVSFYNGNTNYAQKLQGRGTMTTDPSTSTAYMELRSLRSDDTAVYYCARGYGMDVWGQGTTVTVSS
VL: QSALTQPASVSGSPGQSITISCTGTSSDVGGYNSVSWYQQHPGKAPKLMIYEVSNRPSGVSNRFSGSKSGNTASLTISGLQAEDEADYYCNSYTSTSMVFGGGTKLTVLQ
In the case of B1, the Kd in assay [1] stood at 0.36 nM; in assay [2], 0.011 nM.

B2: 16F12 IgG4 (16F12, anti-PCSK9 huIgG4) (antibody, V domains shown)
VH: QVHLVESGGGVVQPGRSLRLSCAASGFTFNSFGMHWVRQAPGKGLEWVALIWSDGSDEYYADSVKGRFTISRDNSKNTLYLQMNSLRAEDTAVYYCARAIAALYYYYGMDVWGQGTTVTVSS
VL: QSVLTQPPSVSAAPGQKVTISCSGSSSNIGNNFVSWYQQLPGTAPKLLIYDYNKRPSGIPDRFSGSKSGTSATLGITGLQTGDEADYYCGTWDSSLSAYVFGTGTRVTVLQ
B2: the equilibrium dissociation constant (Kd) is 0.016 nM in assay [3] and 0.87 nM in assay [1].
